From the Human Domainome abundance scans (Beltran et al. 2025)
± gives the uncertainty stated by the source.

B1: Zinc finger MYM-type protein 6, residues 427 to 504; numbered along this chain, O95789 (parent)
chain: KLKCQHCNHLFATKPELLFYKGKMFLFCGKNCSDEYKKKNKVVAMCDYCKLQKIIKETVRFSGVDKPFCSEVCKFLSA

Variants of: B1
Assay: abundance fitness (aPCA) (normalised: wild type 0, dead -1); higher = more abundant; growth selection in yeast, the domain comes from the species named
Settings: Homo sapiens

Row | Variant | abundance fitness
1 | KLKCQHCNHLFATKPELLFYKGKMFLFCGKNCSDVYKKKNKVVAMCDYCKLQKIIKETVRFSGVDKPFCSEVCKFLSA | -0.07 ± 0.035
2 | KLKCQHCNHLFATKPELLFYKGKMFLFCGKNCSDTYKKKNKVVAMCDYCKLQKIIKETVRFSGVDKPFCSEVCKFLSA | -0.127 ± 0.092
3 | KLKCQHCNHLFATKPELLFYKGKMFLFCGKNCSDEYKKKNKVVAMCDYCKLQKIIKETVRFSGVDYPFCSEVCKFLSA | 0.215 ± 0.33
4 | KLKCQHCNHIFATKPELLFYKGKMFLFCGKNCSDEYKKKNKVVAMCDYCKLQKIIKETVRFSGVDKPFCSEVCKFLSA | -0.135 ± 0.11
5 | KLKCQHCNHCFATKPELLFYKGKMFLFCGKNCSDEYKKKNKVVAMCDYCKLQKIIKETVRFSGVDKPFCSEVCKFLSA | -0.05 ± 0.09
6 | KLKCQHCNHTFATKPELLFYKGKMFLFCGKNCSDEYKKKNKVVAMCDYCKLQKIIKETVRFSGVDKPFCSEVCKFLSA | -0.085 ± 0.055
7 | KLKCQHCNHLFATKPELLFYKGKMFLFCGKNCSSEYKKKNKVVAMCDYCKLQKIIKETVRFSGVDKPFCSEVCKFLSA | -0.056 ± 0.041
8 | KLKCQHCNHLFATKPELLFYKGKMFLFCGKNCSDEYKKKNKVVAMCDYCKLQKIIKETVRFSSVDKPFCSEVCKFLSA | -0.53 ± 0.23
9 | KLKCQHCNHLFATKPEDLFYKGKMFLFCGKNCSDEYKKKNKVVAMCDYCKLQKIIKETVRFSGVDKPFCSEVCKFLSA | -0.044 ± 0.051
10 | KLKCQHCNHLFATKPELLFYKGKMFLFCGKNCSDEYKKKNKVVAMCDYCKLQKIIKETVRFSGVDKPFCSEVCKFYSA | -0.189 ± 0.33
11 | KLKCQHCNHLFATKPELLFYKGKMFLFCGKNCSDEYKKKNKVVAMCDYCKLQKIIKETVRFSGVDKPFCSEVCKFGSA | -0.052 ± 0.073
12 | KLKCQHCNHLFATKPELLFYKGKMFLFCGKNCSDEYKKKNKVVAMCDYCKLQKIIKETVRSSGVDKPFCSEVCKFLSA | 0.538 ± 0.11
13 | KLKCQHCNHLFATKPELLFYKGKMFLFCGKNCSDEYKKKNKVVAMCDYCKLQKIIKETVRCSGVDKPFCSEVCKFLSA | 0.561 ± 0.085
14 | KLKCQHCNHLFATKPELLFYKGKMFLQCGKNCSDEYKKKNKVVAMCDYCKLQKIIKETVRFSGVDKPFCSEVCKFLSA | -0.527 ± 0.054
15 | KLKCQHCNHLFATKPELLFYKDKMFLFCGKNCSDEYKKKNKVVAMCDYCKLQKIIKETVRFSGVDKPFCSEVCKFLSA | -0.215 ± 0.5
16 | KLKCQHCNHLFATKPELLFYKGKMFLFCGKNCSDEYKKKNKVVAMCDYCKLQKIIKETVRFSGVDKPFCSEVCKFLQA | -0.303 ± 0.24
17 | KLKCQHCNHLFATKPELLFYNGKMFLFCGKNCSDEYKKKNKVVAMCDYCKLQKIIKETVRFSGVDKPFCSEVCKFLSA | -0.03 ± 0.033
18 | KLKCQHCNVLFATKPELLFYKGKMFLFCGKNCSDEYKKKNKVVAMCDYCKLQKIIKETVRFSGVDKPFCSEVCKFLSA | 0.032 ± 0.032

Row | Variant | abundance fitness
19 | KLKCQHCNMLFATKPELLFYKGKMFLFCGKNCSDEYKKKNKVVAMCDYCKLQKIIKETVRFSGVDKPFCSEVCKFLSA | 0.022 ± 0.052
20 | KLKCQHCNGLFATKPELLFYKGKMFLFCGKNCSDEYKKKNKVVAMCDYCKLQKIIKETVRFSGVDKPFCSEVCKFLSA | 0.014 ± 0.028
21 | KLKCQHCNHLFATKPELLFYKGKMFLFCGKNSSDEYKKKNKVVAMCDYCKLQKIIKETVRFSGVDKPFCSEVCKFLSA | -1.01 ± 0.2
22 | KLKCQHCNHLFATKPELLFYKGKMFLFCGKNQSDEYKKKNKVVAMCDYCKLQKIIKETVRFSGVDKPFCSEVCKFLSA | -0.944 ± 0.35
23 | KLKCQHCNHLFATKPELLFYKGKMFLFCGKNCRDEYKKKNKVVAMCDYCKLQKIIKETVRFSGVDKPFCSEVCKFLSA | -0.061 ± 0.03
24 | KLKCQHCNHLFATKPELLFYKGKMFLFCGKNCWDEYKKKNKVVAMCDYCKLQKIIKETVRFSGVDKPFCSEVCKFLSA | -0.114 ± 0.043
25 | KLKCQHCNHLFATKPELLFYKGKMFLFCGKNCSDEYKKRNKVVAMCDYCKLQKIIKETVRFSGVDKPFCSEVCKFLSA | -0.004 ± 0.029
26 | KLKCQHCNHLFATKPELLFYKGKMFLFCGKNCSDEYKKKNKVVAMCDYCKLQKIIKETVRFSGVDKPMCSEVCKFLSA | 0.263 ± 0.14
27 | KLKCQHCNHLFATKPELLFYKGKMFLFCGKNCSDEYKKKNKVVAMCDYCKLQKIIKETVRFSGVDKPKCSEVCKFLSA | -0.476 ± 0.21
28 | KLKCQHCNHLFATKPELLFYKGKMFLFCGKNCSDEYKKKNKVVAMCDWCKLQKIIKETVRFSGVDKPFCSEVCKFLSA | -0.276 ± 0.11
29 | KLKCQHCNHLFATKPELLFYKGKMFLFCGKNCSDEYKKKNKVVAMCDYCKLQKIIKETVRFSGVDKPFCKEVCKFLSA | -0.635 ± 0.39
30 | KLKCQHCNHLFATKPELLFYKGKMFLFCGKNCSDEYKKKNKVVAMCDYCKLQKIIKETVRFSGVDKPFCPEVCKFLSA | -0.563 ± 0.48
31 | KLKCQHCNHLFATKPELLFYKGKMFLFCGKNCSDEYKKKNKVVAMCDYCKLQKIIKETVRFSGVDKPFCYEVCKFLSA | -0.673 ± 0.48
32 | KLKCQHCNHLFATKPELLFYKGKMFLFCGKNCSDEYKKKNKVVAMCDYCKLQKIIKETPRFSGVDKPFCSEVCKFLSA | -0.246 ± 0.15
33 | KLKCQHCNHLFATKPELLFYKGKMFLFCGKNCSDEYKKKNKVVAMCDYCKLQKIIKETYRFSGVDKPFCSEVCKFLSA | -0.536 ± 0.42
34 | KLKCQHCNHLFATKPELLFYKGKMLLFCGKNCSDEYKKKNKVVAMCDYCKLQKIIKETVRFSGVDKPFCSEVCKFLSA | 0.043 ± 0.03
35 | KLKCQHCNHLFATKPELLFYKGKMCLFCGKNCSDEYKKKNKVVAMCDYCKLQKIIKETVRFSGVDKPFCSEVCKFLSA | -0.004 ± 0.051
